Experiment: soluble on expression in E. coli; label from the status in PepcDB or PDB records

Sequence	soluble on expression in E. coli
MIRDYKSKLEFLAFYDELTGLPNKNSLIRWLNLKVSQMDCIDTYLIFLEVRDLEKLNVTYGYDLVDELIIHISKRIKDIAGEGNKAFKIGFDRFAIICKSENISDFIERMLSQLLLPYNVNGNLIRVNFNIGAAQIENSNEAAANLMRRCDLALIKAKEEGLNEYVIFKPSIELEHHHHHH	not soluble
MIRFCLQCLKTKKACICEWITPITTDIELIILQHPTEAKRPLGTAKILSLSLVNCRTFIGENFSEHSELNQLLADDSYHHQVLFLDNESKAIGTDKALLQKKQRVILLDGTWKKAYKMWQLSTNLHSLPKVHLNTDLSGNYRVRKAPKDNALSTAEAGYHILTQLDNDCVASNNVEKFDSILTAFDNMIEFHISQMPEGVFEKNYRSLEHHHHHH	soluble
MISKHSSRLPIWVLSPREEQQARKNLKTETYKKCANFVQAMADCAKANGMKVFPTCDKQRDEMKSCLLFYQTDEKYLDGERDKIVLEKINKLEKLCQKQSSTK	not soluble
MISPSKKRTILSSKNINQKPRAVVKGNELRSPSKRRSQIDTDYALRRSPIKTIQISKAAQFMLYEETAEERNIAVHRHNEIYNNNNSVSNENNPSQVKENLSPAKICPYERAFLREGGRIALKDLSVDEFKGYIQDPLTDETIPLTLPLGDKKISLPSFITPPRNSKISIFFTSKHQGQNPETKISRSTDDVSEKKVVRKLSFHVYEDE	not soluble
MISTPPVARNIMRCMSDQLKLDQQICFQLYTGSRLMQRMYRVYFDQWGITYSQYLVLLLLWEKDRQTISELSDPLDLDSGTLSPLLRRMEANGFITREHEQSDYRKVVVCLTTRGRRLKTKAKKMNDELNDMLGFDDADLAAVTRVLEKINPSAAI	not soluble
MISVDTMTNASSTEGISLHHISVSDLDNNCYLLTTESDEGTQGLLIDAADNAPALLDLAESAGARITAVVTTHRHFDHVRALEDVLDTTKATHFASLGDSPRLPRSADTTLGEGDTLRWAGHNLRAHILRGHTQEGLALSIKIDGIYHLFVGDSLFPRGVGKTSTPEEFNQLLSDVKTRLFDVYPDTAVVHPGHGKPTTLGTERPHLEQWRQRGW	not soluble
MITDCCPGFGSVAKYIAVSMLEASFDVASMAKTSTKVFILEVMGRHAGWIAAAGGLASNEDHEVPIIILFPEVTFDQEKFLAKTDHYVKEYGYCTVVVSEGVKGTDGKFLSDQGLRDAFGHAQLGGVAPVIANIVKNGLGLEHHHHHH	soluble
MITGETEPACVEDASQLAEQRNGAPVMEAGCAAVPVEANATKRGYWRQRTLHSWFIGRKPQRTCIAVDIDEVLAFFVPELCAFHNKRYGTRLQATDFHSYRFAEVWGGTDTDAIRKVHEFFRTPAFQELQPIPGAKQVLQSRLARFRFVVVTSRQLVIEQETRAWLDKHFSGIFEAIYLGNQWALHPNGEHGTGVGSAAQEPQRLFANRRRKSQVCKACGAAVLIDDLPHNLLDCSENGVFGVLFDFQGQYGWSKSPAFESKDIAVVHSWEAVGELLDRL	not soluble
MITIKKQEIVKLEDVLHLYQAVGWTNYTHQTEMLEQALSHSLVIYLALDGDAVVGLIRLVGDGFSSVFVQDLIVLPSYQRQGIGSSLMKEALGNFKEAYQVQLATEETEKNVGFYRSMGFEILSTYDCTGMIWINREK	soluble
MITKDVKEQLIQVSGPENFDDSNAGRLVYSYDATPQYQSMPDAVIAPRNTDEISRILTICSEHRVPIVPRGSGTNLCGGTCPTEGGLVLLFKHMNQILEIDEENLTATVQPGVITLDMIRAVESKGLFYPPDPSSMKISTIGGNINENSGGLRGLKYGVTRDYVIGLEVVLANGDIIRTGGKLAKDVAGYDLTRLFVGSEGTLGIVTEAIVKLVPKPETKKTLLALYENIDAAAQTVSDIIAAKIIPATLEFLDQPTLLVIEDYAKIGLPTSAKAVLLIEQDGPFETVERDMEKIEAICKKGDAVSVQTAQTEEEAFALTEARRSALSALARLKPTTILEDATVPRSEIANMVKAINDIAAKYDISICTFGHAGDGNLHPTCTTDIRNKDEMERVEQAFAEIFEKAIELGGTITGEHGVGEMKAPYLEMKLKKEGIDAMKALKAAFDPRNILNPGKMFAKDARKR	not soluble
MITLTLFGQETSSSALIFAYCNAATGSNTMSTDCRRRLNKDLYLLIPEHPMNPKQFERWKSQLSQLSPQQLRALQGEIDRSLHQNESALLTEEERDAIAHLFS	not soluble
MITMLERVPTGIPGFDELCSGGLLRDRSYLVSGPSGSGKTIFAMQYLVNGIEKYNEPGVFVATEERPQHLREHFLTFGWDLEKYEDENMLAIVDATSTKIGLPSDERYIDVRPFDTRSLLDQIITIQDEIGARRAVVDSTTSIGFTISDPAKFRVELLKISTTMEILGLTSILTCEVVEGGGDKISRFGVENFVVEGTIVLYYTRIENTRVRSIEIFKMRGTNHSSKIHPFEITENGIVVYSKEEVFA	not soluble
MITVFGLKSKLAPRREKLAEVIYNSLHLGLDIPKGKHAIRFLCLEKEDFYYPFDRSDDYTVIEINLMAGRMEGTKKRLIKMLFSELEYKLGIRAHDVEITIKEQPAHCWGFRGMTGDEARDLDYDIYV	soluble
MITWADALGFRLVVVDSLGSADQEVVEAEDGEPFERHEMRRLTRPLWTRRKARKLSQGDLALLLGVSRASVQRWEDADKFPRPIALIAWAGRLECSVELDRVTSENDRPQPGREEA	not soluble
MIVDFYFDFLSPFSYLANQRLSKLAQDYGLTIRYNAIDLARVKIAIGNVGPSNRDLKVKLDYLKVDLQRWAQLYGIPLVFPANYNSRRMNIGFYYSGAEAQAAAYVNVVFNAVWGEGIAPDLESLPALVSEKLGWDRSAFEHFLSSNAATERYDEQTHAAIERKVFGVPTMFLGDEMWWGNDRLFMLESAMGRLCRQNADLSS	soluble
MIVILDNGGQYVHRIHRSLKYIGVSSKIVPNTTPLEEIESNKEVKGIILSGGPDIEKAKNCIDIALNAKLPILGICLGHQLIALAYGGEVGRAEAEEYALTKVYVDKENDLFKNVPREFNAWASHKDEVKKVPEGFEILAHSDICQVEAMKHKTKPIYGVQFHPEVAHTEYGNEILKNFCKVCGYKFE	soluble
MIVLVTGATAGFGECITRRFIQQGHKVIATGRRQERLQELKDELGDNLYIAQLDVRNRAAIEEMLASLPAEWCNIDILVNNAGLALGMEPAHKASVEDWETMIDTNNKGLVYMTRAVLPGMVERNHGHIINIGSTAGSWPYAGGNVYGATKAFVRQFSLNLRTDLHGTAVRVTDIEPGLVGGTEFSNVRFKGDDGKAEKTYQNTVALTPEDVSEAVWWVSTLPAHVNINTLEMMPVTQSYAGLNVHRQ	soluble
MIVRGGGDLATGVIQKLWHVGFKILVLETECPLAIRRTVSVCDAIFQKEQRVEDLVAVRITSLKDCAKCWQQNKLPVFVDQTASAIQQLKPLIVIDAILAKKNLGTHRGMAPITIALGPGFSAPQDVDVVIETMRGHRLGRLYFEGTALPNTGIPGEIGGKSAERVVHAPASGQVTHLKNIGDLVLKGEALFLIDQVPVYSPLTGTLRGLISEKVTCYQGLKCADVDPRPVEKVDCLTISDKARALGGAVLEAIFMIGRRKNVL	not soluble
MIYLFTGNMGTGKTSRVVSMILNNEDGLFKMKLEDGTEVDRPLYFCHIDGLDKRQFKAHELTEEQIMSAPLRDVIPEGAVLIVDEAHYTYPVRAAGRPVPPYIQELTELRHHGHTVILMTQHPSQLDIFVRNLVSKHVHLERKAIGMKQYYWYKCVTSLDNPAGVSGVEVASWKPPKEAFKYYKSASQHQ	not soluble
MIYPDETMLYAPVEWHDCSEGYTDIRYEKSTDGIAKITINRPQVRNAFRPLTVKEMIQALADARYDDNVGVIILTGEGDKAFCAGGDQKVRGDYGGYQDDSGVHHLNVLDFQRQIRTCPKPVVAMVAGYSIGGGHVLHMMCDLTIAAENAIFGQTGPKVGSFDGGWGASYMARIVGQKKAREIWFLCRQYDAQQALDMGLVNTVVPLADLEKETVRWCREMLQNSPMALRCLKAALNADCDGQAGLQELAGNATMLFYMTEEGQEGRNAFNQKRQPDFSKFKRNP	not soluble
MKAAHIIDEARLGIMLNDLRLPTIKTLWPQFAEQADKEGWPAARFLSAIAEHELAERDRRRVERHLAEAHLPPGKTLDSFAFDAVPMVSKAQVMAMTAGDSWLAKGANILLFGPPGGGKSHLAAAIGLALIENGWRVLFTRTTDLVQKLQVARRELQLESAIAKLDKFDLLILDLEHHHHHH	not soluble
MKAFISENVRGIYAFDENGNLIEKRYFTDKPEKVLDQLLKGEITKDLEELLNSLKEKGYDEFVFEHPELSRRAKELGFSATTEFPNIAGERLRSNPEEFLGENWFEEYYKVGVALTRMRIQEQSGARDKMVIQAIEALDDVDKVINLLVARLREWYSLHFPELDELLPKHPQYVAFVKTVGHRDNINEEVLRELGLSEEKIKKILEAKEKTMGAWMDQTDIEVVRQLAEEIDRLYQLRKKLEDYIDRAMDDVAPNLKALVGAKLAARLISLAGGLRELAMMPSSTIQVLGAEKALFRHLRTGAKPPKHGVIYQYPAINRSPWWQRGKIARALAGKLAIAARVDYFSGEYIAEELKKELEARIREIKEKYPKPPKRKREERKGKKPWKKDKKKKKKKEKPRRRAAALEHHHHHH	not soluble
MKAHVLFSGGKDSSLSAIILHNLGYEIQLVTVNFGVLDSYLHAEETAKIIGYSHKVELIDKELIEKSVDMILKDGYPGNGIQFVHKQVLEIISEKYDVIADGTRRDDRVPRLDHSELQSLEMRKNIQYVTPLMGFGHKTLRNLVNNYFIISEKESEELLKSDYETEIRELIRQRGIDPLEYFPKHIQSRVIGLKR	not soluble
MKALCLLLLPVLGLLVSSKTLCSMEEAINERIQEVAGSLIFRAISSIGLECQSVTSRGDLATCPRGFAVTGCTCGSACGSWDVRAETTCHCQCAGMDWTGARCCRVQPLEHHHHHH	not soluble
MKASVRWVECPRDAWQGFSRFIPTEEKVAFLNELLEAGFAHLDLTSFVSPKWVPQMQDAEEVLKALPPPNGRTYLAIVANEKGLERALAAPNLTHVGYPFSLSETFQQRNTNRSIEASWPLVGAMVERTEGRLGLVVYLSMAFGNPYGDPWSVEAVLEALARLKEMGVREIALADTYGVAEPERIHEVLKAAVARFGPEGLGAHLHARPEGALAKVEAVLAAGVTWLEGALAGVGGCPFAGDELVGNLPTEVVLPHLEKRGLATGVDLSRLPLLAEEAARLKALYA	soluble
MKAVYPGSFDPITLGHVDIIKRALSIFDELVVLVTENPRKKCMFTLEERKKLIEEVLSDLDGVKVDVHHGLLVDYLKKHGIKVLVRGLRAVTDYEYELQMALANKKLYSDLETVFLIASEKFSFISSSLVKEVALYGGDVTEWVPPEVARALNEKLKEGKR	not soluble
MKCSWREGNKIQLLENGEQYYPAVFKAIGEAQERIILETFIWFEDNVGKQLHAALLAAAQRGVKAEVLLDGYGSPDLSDEFVNELTAAGVVFRYYDPRPRLFGMRTNVFRRMHRKIVVIDARIAFIGGLNYSAEHMSSYGPEAKQDYAVRLEGPIVEDILQFELENLPGQSAARRWWRRHHKAEENRQPGEAQVLLVWRDNEEHRDDIERHYLKMLTQAQREVIIANAYFFPGYRFLHALRKAARRGVRIKLIIQGEPDMPIVRVGARLLYNYLVKGGVQVFEYRRRPLHGKVALMDDHWATVGSSNLDPLSLSLNLEANVIIHDRHFNQTLRDNLNGIIAADCQQVDETMLPKRTWWNLTKSVLAFHFLRHFPALVGWLPAHTPRLTQVDPPAQPTMETQDRVETENTGVNP	not soluble
